Assays:
[1] = target: BA.2.12.1 spike, recombinant trimer that retains the native sequence (SARS-CoV-2) (UniProt P0DTC2); assay: cryo-EM structure
[2] = target: BA.4 spike, recombinant trimeric S-twin-Strep, prefusion stabilized (SARS-CoV-2) (UniProt P0DTC2); assay: cryo-EM structure

| Substance | stoichiometry N (chains per oligomer) [1] | stoichiometry N (chains per oligomer) [2] |
| --- | --- | --- |
| BA.2.12.1 spike, recombinant trimer that retains the native sequence (from UniProt P0DTC2) (natural protein) | 3 |  |
| BA.4 spike, recombinant trimeric S-twin-Strep, prefusion stabilized (from UniProt P0DTC2 28-1147) (natural protein) |  | 3 |
